Experimental data reported in PMC5593925.

What was measured:
actin = actin (UniProt P68135); assay: MST
[1] = molecular target: plasminogen (affinity column for M. pneumoniae lysate; microscale thermophoresis); assay: MST; fluorescently labelled host protein, Ef-Tu unlabelled; 40%, 60% and 80% MST power, 30 s
fetuin = fetuin (UniProt P12763); assay: as above
UniProt P12763, sequence (P12763 19-359): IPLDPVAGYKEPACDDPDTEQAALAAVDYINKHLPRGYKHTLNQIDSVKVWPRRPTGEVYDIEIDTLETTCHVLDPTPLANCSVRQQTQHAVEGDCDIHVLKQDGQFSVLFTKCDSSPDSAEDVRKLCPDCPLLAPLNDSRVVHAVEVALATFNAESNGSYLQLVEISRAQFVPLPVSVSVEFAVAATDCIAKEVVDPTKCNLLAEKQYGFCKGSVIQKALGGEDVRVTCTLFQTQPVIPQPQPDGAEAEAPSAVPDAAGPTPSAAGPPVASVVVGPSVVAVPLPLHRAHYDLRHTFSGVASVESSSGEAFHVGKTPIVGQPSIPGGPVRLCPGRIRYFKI

Substance	Kd (actin) [µM]	Kd [1] [µM]	Kd (fetuin) [µM]
recombinant Elongation factor Tu of Mycoplasma pneumoniae (from UniProt P23568 1-394) (natural protein)	0.019	0.933	
recombinant Elongation factor Tu of Mycoplasma pneumoniae (from UniProt P23568 1-394) (natural protein; other documents disagree on this pair)			0.053
